The results in this text go back to patent US20240377408A1.

Common to all, as to assay: cell-based or functional assay
Test [1] deals with M64-DAEIR.
For test [2], the target named is M64-FAEIR.
Test [3] has as its target M64-LAEIR.
Test [4] has as its target M64-EAEIR.
Test [5] deals with M64-AAEIR.
Test [6] has as its target human carbonic anhydrase 2 (wild-type hCAII) (Homo sapiens) (UniProt P00918).

Take “Carbonic anhydrase I, Homo sapiens (scaffold) (from UniProt P00915 5-261) (enzyme)”: the IC50 values (µM), colorimetric pNPA hydrolysis inhibition assay turned out to be 0.136 µM in test [1]; 0.012 µM in test [2]; 0.016 µM in test [3]; 1.09 µM in test [4]; 0.109 µM in test [5].

FAAAE (peptide) yielded an IC50 (µM), hCAII functional assay (p-nitrophenyl acetate hydrolysis) in test [6] of 152 µM.
